Reference: US20240409645A1 (DUALYX, published 2024)

T1: human IL-2 receptor (IL-2Rα/IL-2Rβ/γc) (human, UniProt P01589 22-272; P14784 27-551; P31785 23-369)
T1 sequence 1: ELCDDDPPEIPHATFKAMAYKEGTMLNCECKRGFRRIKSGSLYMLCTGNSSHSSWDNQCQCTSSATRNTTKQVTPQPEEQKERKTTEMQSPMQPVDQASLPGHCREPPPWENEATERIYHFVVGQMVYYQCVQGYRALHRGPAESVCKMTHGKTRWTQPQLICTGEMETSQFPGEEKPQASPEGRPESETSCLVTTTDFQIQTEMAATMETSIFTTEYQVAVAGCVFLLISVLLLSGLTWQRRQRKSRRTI
T1 sequence 2: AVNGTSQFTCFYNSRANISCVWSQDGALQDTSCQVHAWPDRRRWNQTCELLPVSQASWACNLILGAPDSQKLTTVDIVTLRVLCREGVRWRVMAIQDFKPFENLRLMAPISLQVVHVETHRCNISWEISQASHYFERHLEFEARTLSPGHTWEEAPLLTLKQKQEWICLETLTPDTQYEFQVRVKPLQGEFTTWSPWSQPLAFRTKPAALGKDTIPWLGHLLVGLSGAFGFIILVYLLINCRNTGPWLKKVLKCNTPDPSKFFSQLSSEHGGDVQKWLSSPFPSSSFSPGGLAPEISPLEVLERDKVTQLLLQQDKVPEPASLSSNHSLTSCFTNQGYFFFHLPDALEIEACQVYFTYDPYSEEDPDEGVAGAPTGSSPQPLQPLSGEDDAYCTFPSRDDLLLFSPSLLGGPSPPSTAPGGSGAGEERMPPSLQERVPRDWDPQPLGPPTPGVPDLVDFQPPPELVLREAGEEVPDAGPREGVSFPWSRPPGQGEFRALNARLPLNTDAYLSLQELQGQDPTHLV
T1 sequence 3: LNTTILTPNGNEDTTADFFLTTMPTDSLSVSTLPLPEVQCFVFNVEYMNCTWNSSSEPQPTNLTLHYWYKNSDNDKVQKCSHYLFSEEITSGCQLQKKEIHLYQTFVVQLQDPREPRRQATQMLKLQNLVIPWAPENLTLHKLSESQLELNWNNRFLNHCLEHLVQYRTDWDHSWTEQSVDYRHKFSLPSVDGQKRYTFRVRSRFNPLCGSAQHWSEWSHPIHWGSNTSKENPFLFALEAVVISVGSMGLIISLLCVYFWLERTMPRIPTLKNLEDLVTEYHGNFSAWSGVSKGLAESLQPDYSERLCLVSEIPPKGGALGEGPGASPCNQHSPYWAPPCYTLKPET

B1: DC00053 (other)
chain 1: QVQLVESGGGLVQPGGSLRLSCATSGFTFRNNFMSWVRQAPGKGLEWVSTISYGGESTTYAESVKGRFTISRDNAKNTLYLQMNNLKPEDTAVYYCAKATSYDSIRSGSRGQGTQVTVSSGGGGSGGGGSGGGGSEVQLVESGGGLVQTGGSLRLSCAASGGTFSRDAMAWFRQVPGKEREFVALISWSGATTNYADSVKGRFAISRDNGKNTVYLQMNRLKPADTAIYYCAADRRPMGSRSYFEPTEYDDWGQGTQVTVSSGGGGSGGGGSGGGGSDKTHTCPPCPAPEAAGGPSVFLFPPKPKDTLMISRTPEVTCVVVDVSHEDPEVKFNWYVDGVEVHNAKTKPREEQYNSTYRVVSVLTVLHQDWLNGKEYKCKVSNKALGAPIEKTISKAKGQPREPQVYTLPPSRDELTKNQVSLTCLVKGFYPSDIAVEWESNGQPENNYKTTPPVLDSDGSFLLYSKLTVDKSRWQQGNVFSCSVMHEALHNHYTQKSLSLSPGK
chain 2: EVQLVESGGGLVQTGGSLRLSCAASGGTFSRDAMAWFRQVPGKEREFVALISWSGATTNYADSVKGRFAISRDNGKNTVYLQMNRLKPADTAIYYCAADRRPMGSRSYFEPTEYDDWGQGTQVTVSSGGGGSGGGGSGGGGSQVQLVESGGGLVQPGGSLRLSCATSGFTFRNNFMSWVRQAPGKGLEWVSTISYGGESTTYAESVKGRFTISRDNAKNTLYLQMNNLKPEDTAVYYCAKATSYDSIRSGSRGQGTQVTVSSGGGGSGGGGSGGGGSQVQLVESGGGLVQAGGSLTLSCAAPGRTFGTDVVGWFRQAPGKEREFVASISRSGDGIYYDDSVKGRFTISRNNAWNTVNLQMNSLKVEDTAVYYCAAGDGWSTYDYWGQGTQVTVSSGGGGSGGGGSGGGGSDKTHTCPPCPAPEAAGGPSVFLFPPKPKDTLMISRTPEVTCVVVDVSHEDPEVKFNWYVDGVEVHNAKTKPREEQYNSTYRVVSVLTVLHQDWLNGKEYKCKVSNKALGAPIEKTISKAKGQPREPQVYTLPPSRDELTKNQVSLTCLVKGFYPSDIAVEWESNGQPENNYKTTPPVLDSDGSFFLYSRLTVDKSRWQQGNVFSCSVMHEALHNHYTQKSLSLSPGK
B2: DC00058 (other)
chain 1: B1 chain 1
chain 2: QVQLVESGGGLVQAGGSLTLSCAAPGRTFGTDVVGWFRQAPGKEREFVASISRSGDGIYYDDSVKGRFTISRNNAWNTVNLQMNSLKVEDTAVYYCAAGDGWSTYDYWGQGTQVTVSSGGGGSGGGGSGGGGSEVQLVESGGGLVQTGGSLRLSCAASGGTFSRDAMAWFRQVPGKEREFVALISWSGATTNYADSVKGRFAISRDNGKNTVYLQMNRLKPADTAIYYCAADRRPMGSRSYFEPTEYDDWGQGTQVTVSSGGGGSGGGGSGGGGSQVQLVESGGGLVQPGGSLRLSCATSGFTFRNNFMSWVRQAPGKGLEWVSTISYGGESTTYAESVKGRFTISRDNAKNTLYLQMNNLKPEDTAVYYCAKATSYDSIRSGSRGQGTQVTVSSDKTHTCPPCPAPEAAGGPSVFLFPPKPKDTLMISRTPEVTCVVVDVSHEDPEVKFNWYVDGVEVHNAKTKPREEQYNSTYRVVSVLTVLHQDWLNGKEYKCKVSNKALGAPIEKTISKAKGQPREPQVYTLPPSRDELTKNQVSLTCLVKGFYPSDIAVEWESNGQPENNYKTTPPVLDSDGSFFLYSRLTVDKSRWQQGNVFSCSVMHEALHNHYTQKSLSLSPGK
B3: DC00059 (other)
chain 1: B1 chain 1
chain 2: QVQLVESGGGLVQAGGSLTLSCAAPGRTFGTDVVGWFRQAPGKEREFVASISRSGDGIYYDDSVKGRFTISRNNAWNTVNLQMNSLKVEDTAVYYCAAGDGWSTYDYWGQGTQVTVSSGGGGSGGGGSGGGGSQVQLVESGGGLVQPGGSLRLSCATSGFTFRNNFMSWVRQAPGKGLEWVSTISYGGESTTYAESVKGRFTISRDNAKNTLYLQMNNLKPEDTAVYYCAKATSYDSIRSGSRGQGTQVTVSSGGGGSGGGGSGGGGSEVQLVESGGGLVQTGGSLRLSCAASGGTFSRDAMAWFRQVPGKEREFVALISWSGATTNYADSVKGRFAISRDNGKNTVYLQMNRLKPADTAIYYCAADRRPMGSRSYFEPTEYDDWGQGTQVTVSSGGGGSGGGGSGGGGSDKTHTCPPCPAPEAAGGPSVFLFPPKPKDTLMISRTPEVTCVVVDVSHEDPEVKFNWYVDGVEVHNAKTKPREEQYNSTYRVVSVLTVLHQDWLNGKEYKCKVSNKALGAPIEKTISKAKGQPREPQVYTLPPSRDELTKNQVSLTCLVKGFYPSDIAVEWESNGQPENNYKTTPPVLDSDGSFFLYSRLTVDKSRWQQGNVFSCSVMHEALHNHYTQKSLSLSPGK
B4: DC00055 (other)
chain 1: B1 chain 1
chain 2: QVQLVESGGGLVQPGGSLRLSCATSGFTFRNNFMSWVRQAPGKGLEWVSTISYGGESTTYAESVKGRFTISRDNAKNTLYLQMNNLKPEDTAVYYCAKATSYDSIRSGSRGQGTQVTVSSGGGGSGGGGSGGGGSQVQLVESGGGLVQAGGSLTLSCAAPGRTFGTDVVGWFRQAPGKEREFVASISRSGDGIYYDDSVKGRFTISRNNAWNTVNLQMNSLKVEDTAVYYCAAGDGWSTYDYWGQGTQVTVSSGGGGSGGGGSGGGGSEVQLVESGGGLVQTGGSLRLSCAASGGTFSRDAMAWFRQVPGKEREFVALISWSGATTNYADSVKGRFAISRDNGKNTVYLQMNRLKPADTAIYYCAADRRPMGSRSYFEPTEYDDWGQGTQVTVSSGGGGSGGGGSGGGGSDKTHTCPPCPAPEAAGGPSVFLFPPKPKDTLMISRTPEVTCVVVDVSHEDPEVKFNWYVDGVEVHNAKTKPREEQYNSTYRVVSVLTVLHQDWLNGKEYKCKVSNKALGAPIEKTISKAKGQPREPQVYTLPPSRDELTKNQVSLTCLVKGFYPSDIAVEWESNGQPENNYKTTPPVLDSDGSFFLYSRLTVDKSRWQQGNVFSCSVMHEALHNHYTQKSLSLSPGK
B5: DC00061 (other)
chain 1: B1 chain 1
chain 2: QVQLVESGGGLVQAGGSLTLSCAAPGRTFGTDVVGWFRQAPGKEREFVASISRSGDGIYYDDSVKGRFTISRNNAWNTVNLQMNSLKVEDTAVYYCAAGDGWSTYDYWGQGTQVTVSSGGGGSGGGGSGGGGSQVQLVESGGGLVQPGGSLRLSCATSGFTFRNNFMSWVRQAPGKGLEWVSTISYGGESTTYAESVKGRFTISRDNAKNTLYLQMNNLKPEDTAVYYCAKATSYDSIRSGSRGQGTQVTVSSDKTHTCPPCPAPEAAGGPSVFLFPPKPKDTLMISRTPEVTCVVVDVSHEDPEVKFNWYVDGVEVHNAKTKPREEQYNSTYRVVSVLTVLHQDWLNGKEYKCKVSNKALGAPIEKTISKAKGQPREPQVYTLPPSRDELTKNQVSLTCLVKGFYPSDIAVEWESNGQPENNYKTTPPVLDSDGSFFLYSRLTVDKSRWQQGNVFSCSVMHEALHNHYTQKSLSLSPGK
B6: DC00057 (other)
chain 1: B1 chain 1
chain 2: QVQLVESGGGLVQPGGSLRLSCATSGFTFRNNFMSWVRQAPGKGLEWVSTISYGGESTTYAESVKGRFTISRDNAKNTLYLQMNNLKPEDTAVYYCAKATSYDSIRSGSRGQGTQVTVSSGGGGSGGGGSGGGGSEVQLVESGGGLVQTGGSLRLSCAASGGTFSRDAMAWFRQVPGKEREFVALISWSGATTNYADSVKGRFAISRDNGKNTVYLQMNRLKPADTAIYYCAADRRPMGSRSYFEPTEYDDWGQGTQVTVSSGGGGSGGGGSGGGGSQVQLVESGGGLVQAGGSLTLSCAAPGRTFGTDVVGWFRQAPGKEREFVASISRSGDGIYYDDSVKGRFTISRNNAWNTVNLQMNSLKVEDTAVYYCAAGDGWSTYDYWGQGTQVTVSSGGGGSGGGGSGGGGSDKTHTCPPCPAPEAAGGPSVFLFPPKPKDTLMISRTPEVTCVVVDVSHEDPEVKFNWYVDGVEVHNAKTKPREEQYNSTYRVVSVLTVLHQDWLNGKEYKCKVSNKALGAPIEKTISKAKGQPREPQVYTLPPSRDELTKNQVSLTCLVKGFYPSDIAVEWESNGQPENNYKTTPPVLDSDGSFFLYSRLTVDKSRWQQGNVFSCSVMHEALHNHYTQKSLSLSPGK

What follows are binders tested against T1, human IL-2 receptor (IL-2Rα/IL-2Rβ/γc) (assay: cell-based or functional assay).

EC50 (nM) pSTAT5, NK, human PBMCs [nM]	EC50 (nM) pSTAT5, Treg, human PBMCs	Fold Max signal (% pSTAT5+) Treg/NK [fold]	Max signal (% pSTAT5+), NK [% pSTAT5+]	Max signal (% pSTAT5+), Treg [% pSTAT5+]	fold EC50 NK/Treg [fold]	Binder
0.057	0.488 pM	7	13	84	117	B1
1.87	0.0025 nM	3	34	97	748	B2
0.0401	0.252 pM	6	14	86	159	B3
0.889	< 0.1 pM	3	34	97	> 8890	B4
0.165	0.00427 nM	9	5	44	39	B5
0.548	0.00208 nM	5	19	89	263	B6
